Measured values taken from patent US10441663B2, “Methods for treating cancer” (Bicycle Therapeutics Limited, priority 2016, dated 2019).
Entries after “also recorded” stand apart in the source; their conditions may differ. *1 amine or outer side, *2 acyl side, *3 side chain or, on linkers, in order; H or OH if unused. Where a SMILES comes first, the peptide text is derived from it. Bridges are numbered along the chain shown (N, C = ends). [ ]: non-standard residue; d: D form. The star is where a group is joined. X1 = COc1cc2cc(c1Cl)N(C)C(=O)C[C@H](OC(=O)[C@H](C)N(C)C(=O)CCSSC(C)CCC(=O)*)[C@]1(C)O[C@H]1[C@H](C)[C@@H]1C[C@@](O)(NC(=O)O1)[C@H](OC)/C=C/C=C(\C)C2; 1Nal = N[C@@H](Cc1cccc2ccccc12)C(=O)O; TBMB = c1c(C[*:1])cc(C[*:3])cc1C[*:2]; Tle = CC(C)(C)[C@H](N)C(=O)O; βAla = NCCC(=O)O; Sar = CNCC(=O)O

Test system: EBC-1 xenograft
Test: Efficacy of BT1718 in EBC-1 xenograft model (Example 1)
Assay type: in vivo, Mus Musculus
Conditions: for Tumor Size (mm^3): Mean ± SEM
Procedure: The objective of this study was to evaluate the anti-tumor efficacy of BT1718 in EBC-1 xenograft model in female BALB/c nude mice.
The EBC-1 tumor cells were maintained in vitro as a monolayer culture in EMEM medium supplemented with 10% heat inactivated fetal bovine serum at 37° C. in an atmosphere of 5% CO2 in air. The tumor cells will be routinely subcultured twice weekly by trypsin-EDTA treatment. The cells growing in an exponential growth phase will be harvested and counted for tumor inoculation.
Each mouse was inoculated subcutaneously at the right flank with EBC-1 tumor cells (10×10^6) in 0.2 ml of PBS for tumor development. The animals were randomized and treatment was started when the average tumor volume reaches approximately 165 mm^3 for the efficacy study.
All the procedures related to animal handling, care and the treatment in the study were performed according to the guidelines of the Association for Assessment and Accreditation of Laboratory Animal Care (AAALAC). At the time of routine monitoring, the animals were daily checked for any effects of tumor growth and treatments on normal behavior such as mobility, food and water consumption (by looking only), body weight gain/loss (body weights were measured every day), eye/hair matting and any other abnormal effect as stated in the protocol. Death and observed clinical signs were recorded on the basis of the numbers of animals within each subset.
The major endpoint was to see if the tumor growth could be delayed or mice could be cured. Tumor size was measured three times weekly in two dimensions using a caliper, and the volume was expressed in mm^3 using the formula: V=0.5 a×b^2 where a and b are the long and short diameters of the tumor, respectively. The tumor size was then used for calculations of T/C value. The T/C value (in percent) is an indication of antitumor effectiveness; T and C are the mean volumes of the treated and control groups, respectively, on a given day.
TGI was calculated for each group using the formula: TGI (%)=[1−(Ti−T0)/(Vi−V0)]×100; Ti is the average tumor volume of a treatment group on a given day, T0 is the average tumor volume of the treatment group on the day of treatment start, Vi is the average tumor volume of the vehicle control group on the same day with Ti, and V0 is the average tumor volume of the vehicle group on the day of treatment start.
Summary statistics, including mean and the standard error of the mean (SEM), are provided for the tumor volume of each group at each time point.
Statistical analysis of difference in tumor volume among the groups was conducted on the data obtained at the best therapeutic time point after the final dose.
A one-way ANOVA was performed to compare tumor volume among groups, and when a significant F-statistics (a ratio of treatment variance to the error variance) was obtained, comparisons between groups were carried out with Games-Howell test. All data were analyzed using Prism. P<0.05 was considered to be statistically significant.

COc1cc2cc(c1Cl)N(C)C(=O)C[C@H](OC(=O)[C@H](C)N(C)C(=O)CCSSC(C)CCC(=O)NCCC(=O)N(C)CC(=O)N(C)CC(=O)N(C)CC(=O)N(C)CC(=O)N(C)CC(=O)N(C)CC(=O)N(C)CC(=O)N(C)CC(=O)N(C)CC(=O)N(C)CC(=O)N[C@@H](C)C(=O)N[C@H]1CSCc3cc4cc(c3)CSC[C@H](NC(=O)[C@@H](C)NC(=O)[C@H](Cc3cccc5ccccc35)NC(=O)[C@H](CCC(=O)O)NC(=O)[C@H](CC(N)=O)NC(=O)[C@@H](C)NC1=O)C(=O)N[C@@H](CCC(=O)O)C(=O)N[C@@H](CC(=O)O)C(=O)N[C@@H](Cc1ccccc1)C(=O)N[C@@H](Cc1ccc(O)cc1)C(=O)N[C@@H](CC(=O)O)C(=O)N[C@@H](C(C)(C)C)C(=O)N[C@H](C(N)=O)CSC4)[C@]1(C)O[C@H]1[C@H](C)[C@@H]1C[C@@](O)(NC(=O)O1)[C@H](OC)/C=C/C=C(\C)C2 (stereo partly shown) [BT1718] ({X1-βAla}-[Sar][Sar][Sar][Sar][Sar][Sar][Sar][Sar][Sar][Sar]AC[dA]NE[1Nal][dA]CEDFYD[Tle]C-NH2; linker 12-18-25 via TBMB (inferred))
tumor growth (3 mg/kg, twice weekly for two weeks): significant reduction in tumor growth
post-treatment monitoring (9 mg/kg qw group and 4.5 mg/kg biw group): re-growth after dosing cessation
tumor response (10 mg/kg tiw): complete tumor clearance
tumor response (10 mg/kg, twice weekly for two weeks): complete regressions
body weight effect (30 mg/kg qw): marked body weight loss; also recorded: severe body weight loss
tumor response (30 mg/kg qw, 15 mg/kg biw, 10 mg/kg tiw and 4.3 mg/kg qd, by day 14): completely regressed the tumor
Body Weight (1.3 mpk qd, day 0): 25.1 ± 0.3 g
Body Weight (% Change) (1.3 mpk qd, day 0): 0.0%
Tumor Volume (1.3 mpk qd, day 0): 161 ± 22 mm^3
Body Weight (1.3 mpk qd, day 2): 24.6 ± 0.6 g
Body Weight (% Change) (1.3 mpk qd, day 2): −2.0 ± 2.6%
Tumor Volume (1.3 mpk qd, day 2): 204 ± 30 mm^3
Body Weight (1.3 mpk qd, day 4): 24.9 ± 0.5 g
Body Weight (% Change) (1.3 mpk qd, day 4): −0.8 ± 1.7%
Tumor Volume (1.3 mpk qd, day 4): 243 ± 36 mm^3
Body Weight (1.3 mpk qd, day 7): 24.2 ± 0.5 g
Body Weight (% Change) (1.3 mpk qd, day 7): −3.5 ± 1.3%
Tumor Volume (1.3 mpk qd, day 7): 278 ± 35 mm^3
Body Weight (1.3 mpk qd, day 9): 24.5 ± 0.5 g
Body Weight (% Change) (1.3 mpk qd, day 9): −2.2 ± 2.0%
Tumor Volume (1.3 mpk qd, day 9): 326 ± 46 mm^3
Body Weight (1.3 mpk qd, day 11): 25.4 ± 0.4 g
Body Weight (% Change) (1.3 mpk qd, day 11): 1.3 ± 1.4%
Tumor Volume (1.3 mpk qd, day 11): 370 ± 40 mm^3
Body Weight (1.3 mpk qd, day 14): 25.2 ± 0.8 g
Body Weight (% Change) (1.3 mpk qd, day 14): 0.5 ± 3.2%
T/C (%) (1.3 mpk qd, day 14): 38%
TGI (%) (1.3 mpk qd, day 14): 71%
Tumor Volume (1.3 mpk qd, day 14): 473 ± 44 mm^3
Tumor Size (mm^3) (1.3 mpk qd, day 14): 473 ± 44 mm^3
Body Weight (3 mpk tiw, day 0): 24.0 ± 0.2 g
Body Weight (% Change) (3 mpk tiw, day 0): 0.0%
Tumor Volume (3 mpk tiw, day 0): 165 ± 13 mm^3
Body Weight (3 mpk tiw, day 2): 23.8 ± 0.3 g
Body Weight (% Change) (3 mpk tiw, day 2): −1.0 ± 0.9%
Tumor Volume (3 mpk tiw, day 2): 251 ± 18 mm^3
Body Weight (3 mpk tiw, day 4): 24.1 ± 0.3 g
Body Weight (% Change) (3 mpk tiw, day 4): 0.3 ± 0.7%
Tumor Volume (3 mpk tiw, day 4): 381 ± 26 mm^3
Body Weight (3 mpk tiw, day 7): 24.5 ± 0.2 g
Body Weight (% Change) (3 mpk tiw, day 7): 2.0 ± 0.2%
Tumor Volume (3 mpk tiw, day 7): 501 ± 41 mm^3
Body Weight (3 mpk tiw, day 9): 24.7 ± 0.2 g
Body Weight (% Change) (3 mpk tiw, day 9): 2.8 ± 0.6%
Tumor Volume (3 mpk tiw, day 9): 525 ± 40 mm^3
Body Weight (3 mpk tiw, day 11): 24.7 ± 0.2 g
Body Weight (% Change) (3 mpk tiw, day 11): 3.1 ± 1.0%
Tumor Volume (3 mpk tiw, day 11): 540 ± 46 mm^3
Body Weight (3 mpk tiw, day 14): 25.1 ± 0.2 g
Body Weight (% Change) (3 mpk tiw, day 14): 4.6 ± 1.5%
T/C (%) (3 mpk tiw, day 14): 52%
TGI (%) (3 mpk tiw, day 14): 56%
Tumor Volume (3 mpk tiw, day 14): 644 ± 56 mm^3
Tumor Size (mm^3) (3 mpk tiw, day 14): 644 ± 56 mm^3
Body Weight (4.3 mpk qd, day 0): 24.8 ± 0.4 g
